What is called Kd is the constant that tells how readily two partners part at equilibrium. The low end stands for a tighter complex, the high end for a looser complex.

Our source for the Kd values is publication doi:10.1101/2025.07.02.662713.

This assay has as its target CFP-MtbDarG MD (mCerulean-fused macrodomain of Mycobacterium tuberculosis DNA ADP-ribosylglycohydrolase DarG) (M. tuberculosis) (UniProt O53605). Put plainly: FRET or BRET. For orientation: In BRET a luciferase serves as donor, and the signal depends on an acceptor being close.

Sequence of CFP-MtbDarG MD (mCerulean-fused macrodomain of Mycobacterium tuberculosis DNA ADP-ribosylglycohydrolase DarG) (M. tuberculosis) (O53605 1-155): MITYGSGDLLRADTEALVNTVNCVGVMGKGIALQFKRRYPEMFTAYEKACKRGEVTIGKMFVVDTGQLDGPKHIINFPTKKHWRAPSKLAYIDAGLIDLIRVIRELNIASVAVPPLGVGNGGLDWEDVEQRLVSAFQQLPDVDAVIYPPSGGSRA
Sequence of PARylated YFP-GAP (mCitrine fused to a C-terminal Gαi 10-mer peptide, poly-ADP-ribosylated) (P63096 whole entry, looked up, the tested form may be a part): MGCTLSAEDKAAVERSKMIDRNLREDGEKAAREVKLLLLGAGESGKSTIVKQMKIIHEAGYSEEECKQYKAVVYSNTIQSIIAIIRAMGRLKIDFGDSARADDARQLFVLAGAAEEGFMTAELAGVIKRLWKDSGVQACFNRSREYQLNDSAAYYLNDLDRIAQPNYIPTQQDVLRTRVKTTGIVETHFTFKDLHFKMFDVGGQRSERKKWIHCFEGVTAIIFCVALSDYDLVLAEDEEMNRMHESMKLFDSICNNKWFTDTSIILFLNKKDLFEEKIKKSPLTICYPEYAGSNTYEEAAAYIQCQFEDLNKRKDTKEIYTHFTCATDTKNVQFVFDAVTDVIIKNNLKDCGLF

“PARylated YFP-GAP (mCitrine fused to a C-terminal Gαi 10-mer peptide, poly-ADP-ribosylated) (from UniProt P63096 345-354)” showed a Kd of 316 nM.
